Measurements reported in patent US20250025478A1 (published 2025).

B1: ALDH1B1 (enzyme, Homo sapiens, UniProt P30837 18-517, looked up)
chain: RYSSAAALPSPILNPDIPYNQLFINNEWQDAVSKKTFPTVNPTTGEVIGHVAEGDRADVDRAVKAAREAFRLGSPWRRMDASERGRLLNRLADLVERDRVYLASLETLDNGKPFQESYALDLDEVIKVYRYFAGWADKWHGKTIPMDGQHFCFTRHEPVGVCGQIIPWNFPLVMQGWKLAPALATGNTVVMKVAEQTPLSALYLASLIKEAGFPPGVVNIITGYGPTAGAAIAQHVDVDKVAFTGSTEVGHLIQKAAGDSNLKRVTLELGGKSPSIVLADADMEHAVEQCHEALFFNMGQCCCAGSRTFVEESIYNEFLERTVEKAKQRKVGNPFELDTQQGPQVDKEQFERVLGYIQLGQKEGAKLLCGGERFGERGFFIKPTVFGGVQDDMRIAKEEIFGPVQPLFKFKKIEEVVERANNTRYGLAAAVFTRDLDKAMYFTQALQAGTVWVNTYNIVTCHTPFGGFKESGNGRELGEDGLKAYTEVKTVTIKVPQKNS
notes: Endogenous protein found by proximity labelling/MS; also called Aldehyde dehydrogenase X, mitochondrial
B2: MAP4K4 (enzyme, Homo sapiens, UniProt O95819-4 2-1165, looked up)
chain: ANDSPAKSLVDIDLSSLRDPAGIFELVEVVGNGTYGQVYKGRHVKTGQLAAIKVMDVTEDEEEEIKLEINMLKKYSHHRNIATYYGAFIKKSPPGHDDQLWLVMEFCGAGSITDLVKNTKGNTLKEDWIAYISREILRGLAHLHIHHVIHRDIKGQNVLLTENAEVKLVDFGVSAQLDRTVGRRNTFIGTPYWMAPEVIACDENPDATYDYRSDLWSCGITAIEMAEGAPPLCDMHPMRALFLIPRNPPPRLKSKKWSKKFFSFIEGCLVKNYMQRPSTEQLLKHPFIRDQPNERQVRIQLKDHIDRTRKKRGEKDETEYEYSGSEEEEEEVPEQEGEPSSIVNVPGESTLRRDFLRLQQENKERSEALRRQQLLQEQQLREQEEYKRQLLAERQKRIEQQKEQRRRLEEQQRREREARRQQEREQRRREQEEKRRLEELERRRKEEEERRRAEEEKRRVEREQEYIRRQLEEEQRHLEVLQQQLLQEQAMLLHDHRRPHPQHSQQPPPPQQERSKPSFHAPEPKAHYEPADRAREVPVRTTSRSPVLSRRDSPLQGSGQQNSQAGQRNSTSIEPRLLWERVEKLVPRPGSGSSSGSSNSGSQPGSHPGSQSGSGERFRVRSSSKSEGSPSQRLENAVKKPEDKKEVFRPLKPAGEVDLTALAKELRAVEDVRPPHKVTDYSSSSEESGTTDEEDDDVEQEGADESTSGPEDTRAASSLNLSNGETESVKTMIVHDDVESEPAMTPSKEGTLIVRQTQSASSTLQKHKSSSSFTPFIDPRLLQISPSSGTTVTSVVGFSCDGMRPEAIRQDPTRKGSVVNVNPTNTRPQSDTPEIRKYKKRFNSEILCAALWGVNLLVGTESGLMLLDRSGQGKVYPLINRRRFQQMDVLEGLNVLVTISGKKDKLRVYYLSWLRNKILHNDPEVEKKQGWTTVGDLEGCVHYKVVKYERIKFLVIALKSSVEVYAWAPKPYHKFMAFKSFGELVHKPLLVDLTVEEGQRLKVIYGSCAGFHAVDVDSGSVYDIYLPTHVRKNPHSMIQCSIKPHAIIILPNTDGMELLVCYEDEGVYVNTYGRITKDVVLQWGEMPTSVAYIRSNQTMGWGEKAIEIRSVETGHLDGVFMHKRAQRLKFLCERNDKVFFASVRSGGSSQVYFMTLGRTSLLSW
notes: Endogenous protein found by proximity labelling/MS
B3: CPEB4 (other, Homo sapiens, UniProt Q17RY0-2 1-712, looked up)
chain: MGDYGFGVLVQSNTGNKSAFPVRFHPHLQPPHHHQNATPSPAAFINNNTAANGSSAGSAWLFPAPATHNIQDEILGSEKAKSQQQEQQDPLEKQQLSPSPGQEAGILPETEKAKSEENQGDNSSENGNGKEKIRIESPVLTGFDYQEATGLGTSTQPLTSSASSLTGFSNWSAAIAPSSSTIINEDASFFHQGGVPAASANNGALLFQNFPHHVSPGFGGSFSPQIGPLSQHHPHHPHFQHHHSQHQQQRRSPASPHPPPFTHRNAAFNQLPHLANNLNKPPSPWSSYQSPSPTPSSSWSPGGGGYGGWGGSQGRDHRRGLNGGITPLNSISPLKKNFASNHIQLQKYARPSSAFAPKSWMEDSLNRADNIFPFPDRPRTFDMHSLESSLIDIMRAENDTIKARTYGRRRGQSSLFPMEDGFLDDGRGDQPLHSGLGSPHCFSHQNGERVERYSRKVFVGGLPPDIDEDEITASFRRFGPLIVDWPHKAESKSYFPPKGYAFLLFQDESSVQALIDACIEEDGKLYLCVSSPTIKDKPVQIRPWNLSDSDFVMDGSQPLDPRKTIFVGGVPRPLRAVELAMIMDRLYGGVCYAGIDTDPELKYPKGAGRVAFSNQQSYIAAISARFVQLQHGEIDKRVEVKPYVLDDQLCDECQGARCGGKFAPFFCANVTCLQYYCEYCWAAIHSRAGREFHKPLVKEGGDRPRHISFRWN
notes: as for B2
B4: FLII (other, Homo sapiens, UniProt Q13045-2 1-1214, looked up)
chain: MEATGVLPFVRGVDLSGNDFKGGYFPENVKAMTSLRWLKLNRTGLCYLPEELAALQKLEHLSVSHNNLTTLHGELSSLPSLRAIVARANSLKNSGVPDDIFKLDDLSVLDLSHNQLTECPRELENAKNMLVLNLSHNRQLPAMTALQTLHLRSTQRTQSNLPTSLEGLSNLADVDLSCNDLTRVPECLYTLPSLRRLNLSSNQITELSLCIDQWVHVETLNLSRNQLTSLPSAICKLSKLKKLYLNSNKLDFDGLPSGIGKLTNLEEFMAANNNLELVPESLCRCPKLRKLVLNKNHLVTLPEAIHFLTEIEVLDVRENPNLVMPPKPADRAAEWYNIDFSLQNQLRLAGASPATVAAAAAGSGPKDPMARKMRLRRRKDSAQDDQAKQVLKGMSDVAQEKNKKQEESADARAPSGKVRRWDQGLEKPRLDYSEFFTEDVGQLPGLTIWQIENFVPVLVEEAFHGKFYEADCYIVLKTFLDDSGSLNWEIYYWIGGEATLDKKACSAIHAVNLRNYLGAECRTVREEMGDESEEFLQVFDNDISYIEGGTASGFYTVEDTHYVTRMYRVYGKKNIKLEPVPLKGTSLDPRFVFLLDRGLDIYVWRGAQATLSSTTKARLFAEKINKNERKGKAEITLLVQGQELPEFWEALGGEPSEIKKHVPEDFWPPQPKLYKVGLGLGYLELPQINYKLSVEHKQRPKVELMPRMRLLQSLLDTRCVYILDCWSDVFIWLGRKSPRLVRAAALKLGQELCGMLHRPRHATVSRSLEGTEAQVFKAKFKNWDDVLTVDYTRNAEAVLQSPGLSGKVKRDAEKKDQMKADLTALFLPRQPPMSLAEAEQLMEEWNEDLDGMEGFVLEGKKFARLPEEEFGHFYTQDCYVFLCRYWVPVEYEEEEKKEDKEEKAEGKEGEEATAEAEEKQPEEDFQCIVYFWQGREASNMGWLTFTFSLQKKFESLFPGKLEVVRMTQQQENPKFLSHFKRKFIIHRGKRKAVQGAQQPSLYQIRTNGSALCTRCIQINTDSSLLNSEFCFILKVPFESEDNQGIVYAWVGRASDPDEAKLAEDILNTMFDTSYSKQVINEGEEPENFFWVGIGAQKPYDDDAEYMKHTRLFRCSNEKGYFAVTEKCSDFCQDDLADDDIMLLDNGQEVYMWVGTQTSQVEIKLSLKACQVYIQHMRSKEHERPRRLRLVRKGNEQHAFTRCFHAWSAFCKALA
notes: Endogenous protein found by proximity labelling/MS; also called Protein flightless-1 homolog
B5: SPTLC1 (enzyme, Homo sapiens, UniProt O15269 1-473, looked up)
chain: MATATEQWVLVEMVQALYEAPAYHLILEGILILWIIRLLFSKTYKLQERSDLTVKEKEELIEEWQPEPLVPPVPKDHPALNYNIVSGPPSHKTVVNGKECINFASFNFLGLLDNPRVKAAALASLKKYGVGTCGPRGFYGTFDVHLDLEDRLAKFMKTEEAIIYSYGFATIASAIPAYSKRGDIVFVDRAACFAIQKGLQASRSDIKLFKHNDMADLERLLKEQEIEDQKNPRKARVTRRFIVVEGLYMNTGTICPLPELVKLKYKYKARIFLEESLSFGVLGEHGRGVTEHYGINIDDIDLISANMENALASIGGFCCGRSFVIDHQRLSGQGYCFSASLPPLLAAAAIEALNIMEENPGIFAVLKEKCGQIHKALQGISGLKVVGESLSPAFHLQLEESTGSREQDVRLLQEIVDQCMNRSIALTQARYLEKEEKCLPPPSIRVVVTVEQTEEELERAASTIKEVAQAVLL
notes: Endogenous protein found by proximity labelling/MS; also called Serine palmitoyltransferase 1

molecular target: T1, RNF213-TurboID (Homo sapiens (Human), UniProt Q63HN8 1-5207); experiment: TurboID proximity biotinylation, streptavidin recovery, MS, SAINT express
T1 construct: Recombined into HeLa FlpIn-TRex RNF213-KO cells; proximity-labelling bait; also called C-Turbo; 3×-FLAG-RNF213-TurboID; not shown: 3×-FLAG tag; TurboID biotin ligase at the C-terminus
Text: Proteins were ranked as potential binding partners by using the SAINT express algorithm³⁶ Immunoblotting (FIG. 9A) and silver staining (FIG. 9B) confirmed that similar amounts of each sample were submitted for analysis. Relatively few proteins labelled by N-Turbo were labelled to an extent greater than their labeling by Control-Turbo (FIG. 9C). […] Among the other top candidates were the major K63-deubiquitinase and NF-κB regulator CYLD and its interacting protein SPATA2 (FIG. 2B, orange-colored arrows). […] Other top C-Turbo interactors included proteins involved in VEGF signaling, which is induced in hypoxia (FLII, MYOF^{39,40}), inflammation and atherosclerosis (MAP4K4, SPTLC1^{41,42}), lipotoxicity (SPTLC1, ALDH1B1^{43,44}), ischemia response (CPEB4⁴⁵), and stroke (SARS2⁴⁶). Top N-Turbo interactors included CYP51A1, which plays a crucial role in cholesterol metabolism and atherosclerosis⁴⁷.
Cells were cultured in standard media but with 10% tetracycline (Tet)-free FBS (Clonetech) for at least 1 week. Tet-free/biotin-free FBS was generated by incubating Tet-free FBS with sterile streptavidin beads overnight followed by centrifugation to remove the beads. N-Turbo, C-Turbo, and Turbo proteins were induced by adding 1 μg/ml Dox to cells for 36 hours. For the last ten min. of incubation, 500 μM of biotin was added to the medium. Labelling reactions was terminated by removing the medium and adding ice-cold PBS to plates, which were kept on ice. Lysates were collected in RIPA buffer without Na-deoxycholate, and biotin-labelled proteins were collected by incubating with high-capacity streptavidin agarose beads for 4 hours at 4° C.

T1 sequence (Q63HN8 whole entry N1045D): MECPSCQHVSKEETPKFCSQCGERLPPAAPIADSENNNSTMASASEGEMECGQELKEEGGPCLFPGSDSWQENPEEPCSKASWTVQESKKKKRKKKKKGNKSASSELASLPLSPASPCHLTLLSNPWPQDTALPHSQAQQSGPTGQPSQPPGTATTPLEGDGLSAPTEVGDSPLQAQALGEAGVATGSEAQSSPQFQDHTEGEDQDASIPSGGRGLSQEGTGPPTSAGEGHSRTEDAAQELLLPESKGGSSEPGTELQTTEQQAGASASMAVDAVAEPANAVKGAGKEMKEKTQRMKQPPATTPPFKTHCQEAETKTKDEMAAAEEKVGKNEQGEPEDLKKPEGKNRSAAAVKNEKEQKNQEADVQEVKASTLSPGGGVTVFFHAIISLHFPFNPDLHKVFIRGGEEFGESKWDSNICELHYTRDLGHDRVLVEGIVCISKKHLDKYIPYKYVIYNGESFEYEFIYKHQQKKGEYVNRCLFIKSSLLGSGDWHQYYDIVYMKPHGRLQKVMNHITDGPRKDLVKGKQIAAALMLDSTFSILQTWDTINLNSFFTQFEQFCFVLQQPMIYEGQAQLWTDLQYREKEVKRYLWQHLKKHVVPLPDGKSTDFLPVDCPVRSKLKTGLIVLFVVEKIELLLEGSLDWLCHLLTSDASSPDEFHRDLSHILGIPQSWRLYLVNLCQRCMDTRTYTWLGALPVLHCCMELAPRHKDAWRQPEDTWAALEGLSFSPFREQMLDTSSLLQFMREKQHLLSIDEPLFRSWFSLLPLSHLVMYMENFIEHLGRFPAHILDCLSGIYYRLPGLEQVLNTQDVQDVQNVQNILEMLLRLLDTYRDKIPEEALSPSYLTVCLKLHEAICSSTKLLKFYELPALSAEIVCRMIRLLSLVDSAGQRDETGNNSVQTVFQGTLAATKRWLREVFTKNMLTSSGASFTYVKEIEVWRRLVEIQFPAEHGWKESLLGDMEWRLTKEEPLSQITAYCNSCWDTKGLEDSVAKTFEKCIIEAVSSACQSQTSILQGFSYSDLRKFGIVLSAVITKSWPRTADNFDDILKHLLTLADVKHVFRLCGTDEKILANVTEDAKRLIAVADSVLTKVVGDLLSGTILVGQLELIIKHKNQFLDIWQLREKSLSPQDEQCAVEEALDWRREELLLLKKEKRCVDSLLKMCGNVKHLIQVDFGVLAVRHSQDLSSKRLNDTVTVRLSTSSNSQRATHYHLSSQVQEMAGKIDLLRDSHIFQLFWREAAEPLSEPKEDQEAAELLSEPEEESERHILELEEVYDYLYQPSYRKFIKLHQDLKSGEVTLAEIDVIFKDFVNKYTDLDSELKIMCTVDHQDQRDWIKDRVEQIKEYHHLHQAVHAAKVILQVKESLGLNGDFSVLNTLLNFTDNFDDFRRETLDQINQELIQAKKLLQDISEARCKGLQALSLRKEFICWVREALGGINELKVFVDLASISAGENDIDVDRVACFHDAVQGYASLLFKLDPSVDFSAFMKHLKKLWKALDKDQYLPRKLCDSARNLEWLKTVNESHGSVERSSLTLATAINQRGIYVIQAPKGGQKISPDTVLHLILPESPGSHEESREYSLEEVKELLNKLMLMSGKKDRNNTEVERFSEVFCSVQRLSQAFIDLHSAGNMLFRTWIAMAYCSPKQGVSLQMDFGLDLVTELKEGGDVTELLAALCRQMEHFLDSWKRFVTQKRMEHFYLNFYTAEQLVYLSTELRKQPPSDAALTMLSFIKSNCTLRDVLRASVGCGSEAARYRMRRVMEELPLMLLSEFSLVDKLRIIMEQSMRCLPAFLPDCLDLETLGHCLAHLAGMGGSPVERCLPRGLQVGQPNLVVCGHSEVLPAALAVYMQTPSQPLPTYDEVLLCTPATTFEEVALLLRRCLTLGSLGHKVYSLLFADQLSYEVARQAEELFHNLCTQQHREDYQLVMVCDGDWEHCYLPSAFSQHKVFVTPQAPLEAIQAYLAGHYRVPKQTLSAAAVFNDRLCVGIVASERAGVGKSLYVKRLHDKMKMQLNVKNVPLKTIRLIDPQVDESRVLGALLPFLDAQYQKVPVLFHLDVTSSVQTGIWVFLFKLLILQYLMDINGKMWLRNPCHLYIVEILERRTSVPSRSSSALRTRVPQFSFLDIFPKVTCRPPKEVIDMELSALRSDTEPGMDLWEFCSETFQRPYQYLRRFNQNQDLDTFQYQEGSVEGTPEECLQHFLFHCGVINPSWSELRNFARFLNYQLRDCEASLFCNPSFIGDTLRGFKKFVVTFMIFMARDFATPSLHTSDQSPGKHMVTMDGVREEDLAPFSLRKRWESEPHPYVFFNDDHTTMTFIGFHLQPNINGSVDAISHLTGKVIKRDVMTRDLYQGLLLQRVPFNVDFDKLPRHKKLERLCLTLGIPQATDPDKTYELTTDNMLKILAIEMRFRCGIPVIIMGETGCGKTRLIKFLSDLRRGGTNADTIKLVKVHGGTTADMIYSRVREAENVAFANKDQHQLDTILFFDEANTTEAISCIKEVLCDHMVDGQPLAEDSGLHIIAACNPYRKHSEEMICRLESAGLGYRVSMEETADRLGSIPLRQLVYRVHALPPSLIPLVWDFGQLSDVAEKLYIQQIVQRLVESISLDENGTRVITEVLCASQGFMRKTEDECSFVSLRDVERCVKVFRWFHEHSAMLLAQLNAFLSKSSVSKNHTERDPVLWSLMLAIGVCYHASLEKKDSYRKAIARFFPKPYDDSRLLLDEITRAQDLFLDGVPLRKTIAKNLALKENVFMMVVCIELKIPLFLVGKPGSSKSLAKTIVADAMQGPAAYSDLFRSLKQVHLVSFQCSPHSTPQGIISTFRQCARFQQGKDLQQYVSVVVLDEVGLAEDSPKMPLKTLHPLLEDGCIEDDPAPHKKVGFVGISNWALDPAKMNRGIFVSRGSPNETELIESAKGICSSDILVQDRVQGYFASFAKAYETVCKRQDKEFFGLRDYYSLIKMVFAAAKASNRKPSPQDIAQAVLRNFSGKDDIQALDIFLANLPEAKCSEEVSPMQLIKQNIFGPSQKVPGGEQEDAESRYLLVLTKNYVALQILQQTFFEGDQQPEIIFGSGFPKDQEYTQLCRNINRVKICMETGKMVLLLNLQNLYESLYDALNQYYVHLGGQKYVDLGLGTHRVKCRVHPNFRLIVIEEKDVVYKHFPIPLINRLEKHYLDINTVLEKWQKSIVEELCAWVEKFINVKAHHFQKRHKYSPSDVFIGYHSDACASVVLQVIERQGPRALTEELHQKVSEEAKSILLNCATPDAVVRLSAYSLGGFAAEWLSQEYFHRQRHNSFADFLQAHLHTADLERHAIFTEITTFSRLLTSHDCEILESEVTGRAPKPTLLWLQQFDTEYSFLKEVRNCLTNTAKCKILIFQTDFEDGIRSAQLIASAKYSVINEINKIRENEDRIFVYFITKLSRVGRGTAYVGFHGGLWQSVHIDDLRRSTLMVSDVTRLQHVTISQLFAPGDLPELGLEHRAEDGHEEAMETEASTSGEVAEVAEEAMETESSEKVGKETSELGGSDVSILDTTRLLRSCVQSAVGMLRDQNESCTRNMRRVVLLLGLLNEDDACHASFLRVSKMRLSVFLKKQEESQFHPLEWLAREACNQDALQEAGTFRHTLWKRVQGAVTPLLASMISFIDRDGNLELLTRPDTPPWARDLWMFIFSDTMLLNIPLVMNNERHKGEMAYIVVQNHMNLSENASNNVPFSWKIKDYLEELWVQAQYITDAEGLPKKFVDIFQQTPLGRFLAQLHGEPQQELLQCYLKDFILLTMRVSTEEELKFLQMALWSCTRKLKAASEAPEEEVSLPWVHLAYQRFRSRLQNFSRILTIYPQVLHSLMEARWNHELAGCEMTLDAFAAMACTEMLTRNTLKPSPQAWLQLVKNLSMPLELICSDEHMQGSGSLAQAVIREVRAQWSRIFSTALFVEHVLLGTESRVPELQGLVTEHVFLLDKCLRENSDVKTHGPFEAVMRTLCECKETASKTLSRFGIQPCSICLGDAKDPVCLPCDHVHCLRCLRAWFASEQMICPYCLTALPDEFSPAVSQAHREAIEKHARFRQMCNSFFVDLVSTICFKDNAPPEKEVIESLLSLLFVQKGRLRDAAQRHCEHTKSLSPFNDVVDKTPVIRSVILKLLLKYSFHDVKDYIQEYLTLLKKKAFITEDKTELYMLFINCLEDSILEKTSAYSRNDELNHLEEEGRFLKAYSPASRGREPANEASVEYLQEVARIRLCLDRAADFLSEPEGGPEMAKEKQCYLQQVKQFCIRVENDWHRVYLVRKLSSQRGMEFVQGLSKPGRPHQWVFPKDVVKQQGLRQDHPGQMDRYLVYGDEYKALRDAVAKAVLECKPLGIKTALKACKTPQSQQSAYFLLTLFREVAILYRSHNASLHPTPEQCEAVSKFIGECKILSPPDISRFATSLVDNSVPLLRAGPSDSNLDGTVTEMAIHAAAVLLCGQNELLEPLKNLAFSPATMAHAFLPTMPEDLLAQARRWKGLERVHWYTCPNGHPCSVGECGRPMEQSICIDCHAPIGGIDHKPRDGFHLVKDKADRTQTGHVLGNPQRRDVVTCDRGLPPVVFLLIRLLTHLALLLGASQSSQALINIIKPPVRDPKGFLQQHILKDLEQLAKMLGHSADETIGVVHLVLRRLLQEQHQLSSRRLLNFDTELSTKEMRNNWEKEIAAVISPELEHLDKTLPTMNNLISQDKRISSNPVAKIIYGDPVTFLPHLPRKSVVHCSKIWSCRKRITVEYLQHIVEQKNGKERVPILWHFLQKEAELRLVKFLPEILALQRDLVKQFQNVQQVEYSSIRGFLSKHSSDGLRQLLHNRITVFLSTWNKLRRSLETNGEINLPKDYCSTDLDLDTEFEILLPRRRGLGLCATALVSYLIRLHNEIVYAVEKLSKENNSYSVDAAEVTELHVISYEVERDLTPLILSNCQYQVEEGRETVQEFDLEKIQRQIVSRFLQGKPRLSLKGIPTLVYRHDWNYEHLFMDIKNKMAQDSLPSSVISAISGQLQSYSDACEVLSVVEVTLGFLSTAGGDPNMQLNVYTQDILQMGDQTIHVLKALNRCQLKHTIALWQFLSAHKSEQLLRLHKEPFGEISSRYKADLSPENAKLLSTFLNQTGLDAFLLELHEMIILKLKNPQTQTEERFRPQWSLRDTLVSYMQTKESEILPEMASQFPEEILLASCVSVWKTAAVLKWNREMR

Binding result, binds:
B1, B2, B3, B4, B5
